Test results taken from the supplement of paper PMC5998384.

Key:
HeLa Kyoto [1] = test: solubility in G1/S (NP-40 vs SDS abundance) (log2 ratio); higher = more soluble; conditions: cell cycle stage: G1/S
HeLa Kyoto [2] = test: melting temperature (median over replicates), in situ; higher = more thermally stable
HeLa Kyoto [3] = test: solubility change mitosis vs G1/S (difference of NP-40 vs SDS log2 ratios) (log2 ratio difference); higher = more soluble in mitosis
HeLa Kyoto [4] = test: thermal stability score vs G1/S (z-score of summed log2 fold changes over temperatures); higher = more thermally stable than in G1/S
[5] = cell cycle stage: early G1 (4.5 h after nocodazole release)
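Throughout, for melting temperature (median over replicates), in situ: HeLa Kyoto cells synchronized by double thymidine or nocodazole block, proteins quantified by TMT10plex mass spectrometry, three independent biological replicates.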
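Throughout, for solubility change mitosis vs G1/S (difference of NP-40 vs SDS log2 ratios): synchronized HeLa Kyoto cells (double thymidine block for G1/S, nocodazole release for mitosis), protein amounts in NP-40 versus SDS lysates quantified by mass spectrometry, three biological replicates.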
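Throughout, for solubility in G1/S (NP-40 vs SDS abundance): HeLa Kyoto cells arrested at G1/S by double thymidine block, proteins quantified by TMT10plex mass spectrometry in mild NP-40 versus SDS extracts, three biological replicates.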
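Throughout, for thermal stability score vs G1/S (z-score of summed log2 fold changes over temperatures): synchronized HeLa Kyoto cells, proteins quantified by TMT10plex mass spectrometry, three biological replicates, mitosis taken 0.5 h after nocodazole release, G1/S directly after double thymidine block.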

Sequence | solubility in G1/S (log2) (HeLa Kyoto [1]) | melting temperature (HeLa Kyoto [2]; cell cycle stage: G1/S) [°C] | melting temperature (HeLa Kyoto [2]; cell cycle stage: mitosis) [°C] | solubility change mitosis (log2) (HeLa Kyoto [3]) | thermal stability score (HeLa Kyoto [4]; [5]) | thermal stability score (HeLa Kyoto [4]; cell cycle stage: mitosis)
MADYSTVPPPSSGSAGGGGGGGGGGGVNDAFKDALQRARQIAAKIGGDAGTSLNSNDYGYGGQKRPLEDGDQPDAKKVAPQNDSFGTQLPPMHQQQSRSVMTEEYKVPDGMVGFIIGRGGEQISRIQQESGCKIQIAPDSGGLPERSCMLTGTPESVQSAKRLLDQIVEKGRPAPGFHHGDGPGNAVQEIMIPASKAGLVIGKGGETIKQLQERAGVKMVMIQDGPQNTGADKPLRITGDPYKVQQAKEMVLELIRDQGGFREVRNEYGSRIGGNEGIDVPIPRFAVGIVIGRNGEMIKKIQNDAGVRIQFKPDDGTTPERIAQITGPPDRCQHAAEIITDLLRSVQAGNPGGPGPGGRGRGRGQGNWNMGPPGGLQEFNFIVPTGKTGLIIGKGGETIKSISQQSGARIELQRNPPPNADPNMKLFTIRGTPQQIDYARQLIEEKIGGPVNPLGPPVPHGPHGVPGPHGPPGPPGPGTPMGPYNPAPYNPGPPGPAPHGPPAPYAPQGWGNAYPHWQQQAPPDPAKAGTDPNSAAWAAYYAHYYQQQAQPPPAAPAGAPTTTQTNGQGDQQNPAPAGQVDYTKAWEEYYKKMGQAVPAPTGAPPGGQPDYSAAWAEYYRQQAAYYAQTSPQGMPQHPPAPQGQ [FUBP1] | 0.527 | 57 | 56.4 | 0.0996 | -0.104 | -0.787
MAEAEEQETGSLEESTDESEEEESEEEPKLKYERLSNGVTEILQKDAASCMTVHDKFLALGTHYGKVYLLDVQGNITQKFDVSPVKINQISLDESGEHMGVCSEDGKVQVFGLYSGEEFHETFDCPIKIIAVHPHFVRSSCKQFVTGGKKLLLFERSWMNRWKSAVLHEGEGNIRSVKWRGHLIAWANNMGVKIFDIISKQRITNVPRDDISLRPDMYPCSLCWKDNVTLIIGWGTSVKVCSVKERHASEMRDLPSRYVEIVSQFETEFYISGLAPLCDQLVVLSYVKEISEKTEREYCARPRLDIIQPLSETCEEISSDALTVRGFQENECRDYHLEYSEGESLFYIVSPRDVVVAKERDQDDHIDWLLEKKKYEEALMAAEISQKNIKRHKILDIGLAYINHLVERGDYDIAARKCQKILGKNAALWEYEVYKFKEIGQLKAISPYLPRGDPVLKPLIYEMILHEFLESDYEGFATLIREWPGDLYNNSVIVQAVRDHLKKDSQNKTLLKTLAELYTYDKNYGNALEIYLTLRHKDVFQLIHKHNLFSSIKDKIVLLMDFDSEKAVDMLLDNEDKISIKKVVEELEDRPELQHVYLHKLFKRDHHKGQRYHEKQISLYAEYDRPNLLPFLRDSTHCPLEKALEICQQRNFVEETVYLLSRMGNSRSALKMIMEELHDVDKAIEFAKEQDDGELWEDLILYSIDKPPFITGLLNNIGTHVDPILLIHRIKEGMEIPNLRDSLVKILQDYNLQILLREGCKKILVADSLSLLKKMHRTQMKGVLVDEENICESCLSPILPSDAAKPFSVVVFHCRHMFHKECLPMPSMNSAAQFCNICSAKNRGPGSAILEMKK [VPS41] | -0.0889 | 50.2 | 49.8 | -0.131 | 0.549 | 0.342
MAEAMDLGKDPNGPTHSSTLFVRDDGSSMSFYVRPSPAKRRLSTLILHGGGTVCRVQEPGAVLLAQPGEALAEASGDFISTQYILDCVERNERLELEAYRLGPASAADTGSEAKPGALAEGAAEPEPQRHAGRIAFTDADDVAILTYVKENARSPSSVTGNALWKAMEKSSLTQHSWQSLKDRYLKHLRGQEHKYLLGDAPVSPSSQKLKRKAEEDPEAADSGEPQNKRTPDLPEEEYVKEEIQENEEAVKKMLVEATREFEEVVVDESPPDFEIHITMCDDDPPTPEEDSETQPDEEEEEEEEKVSQPEVGAAIKIIRQLMEKFNLDLSTVTQAFLKNSGELEATSAFLASGQRADGYPIWSRQDDIDLQKDDEDTREALVKKFGAQNVARRIEFRKK [TERF2IP] | 0.503 | 49.8 | 52.4 | 0.0568 | 1.96 | 1.16
MAEAVLRVARRQLSQRGGSGAPILLRQMFEPVSCTFTYLLGDRESREAVLIDPVLETAPRDAQLIKELGLRLLYAVNTHCHADHITGSGLLRSLLPGCQSVISRLSGAQADLHIEDGDSIRFGRFALETRASPGHTPGCVTFVLNDHSMAFTGDALLIRGCGRTDFQQGCAKTLYHSVHEKIFTLPGDCLIYPAHDYHGFTVSTVEEERTLNPRLTLSCEEFVKIMGNLNLPKPQQIDFAVPANMRCGVQTPTA [ETHE1] | 0.214 | 56.6 | 56.5 | -0.0383 | -1 | -1.06
MAEDDPYLGRPEQMFHLDPSLTHTIFNPEVFQPQMALPTDGPYLQILEQPKQRGFRFRYVCEGPSHGGLPGASSEKNKKSYPQVKICNYVGPAKVIVQLVTNGKNIHLHAHSLVGKHCEDGICTVTAGPKDMVVGFANLGILHVTKKKVFETLEARMTEACIRGYNPGLLVHPDLAYLQAEGGGDRQLGDREKELIRQAALQQTKEMDLSVVRLMFTAFLPDSTGSFTRRLEPVVSDAIYDSKAPNASNLKIVRMDRTAGCVTGGEEIYLLCDKVQKDDIQIRFYEEEENGGVWEGFGDFSPTDVHRQFAIVFKTPKYKDINITKPASVFVQLRRKSDLETSEPKPFLYYPEIKDKEEVQRKRQKLMPNFSDSFGGGSGAGAGGGGMFGSGGGGGGTGSTGPGYSFPHYGFPTYGGITFHPGTTKSNAGMKHGTMDTESKKDPEGCDKSDDKNTVNLFGKVIETTEQDQEPSEATVGNGEVTLTYATGTKEESAGVQDNLFLEKAMQLAKRHANALFDYAVTGDVKMLLAVQRHLTAVQDENGDSVLHLAIIHLHSQLVRDLLEVTSGLISDDIINMRNDLYQTPLHLAVITKQEDVVEDLLRAGADLSLLDRLGNSVLHLAAKEGHDKVLSILLKHKKAALLLDHPNGDGLNAIHLAMMSNSLPCLLLLVAAGADVNAQEQKSGRTALHLAVEHDNISLAGCLLLEGDAHVDSTTYDGTTPLHIAAGRGSTRLAALLKAAGADPLVENFEPLYDLDDSWENAGEDEGVVPGTTPLDMATSWQVFDILNGKPYEPEFTSDDLLAQGDMKQLAEDVKLQLYKLLEIPDPDKNWATLAQKLGLGILNNAFRLSPAPSKTLMDNYEVSGGTVRELVEALRQMGYTEAIEVIQAASSPVKTTSQAHSLPLSPASTRQQIDELRDSDSVCDSGVETSFRKLSFTESLTSGASLLTLNKMPHDYGQEGPLEGKI [NFKB1] | 0.137 | 48 | 48.5 | -0.0714 | 0.372 | 0.928
MAEGEDVGWWRSWLQQSYQAVKEKSSEALEFMKRDLTEFTQVVQHDTACTIAATASVVKEKLATEGSSGATEKMKKGLSDFLGVISDTFAPSPDKTIDCDVITLMGTPSGTAEPYDGTKARLYSLQSDPATYCNEPDGPPELFDAWLSQFCLEEKKGEISELLVGSPSIRALYTKMVPAAVSHSEFWHRYFYKVHQLEQEQARRDALKQRAEQSISEEPGWEEEEEELMGISPISPKEAKVPVAKISTFPEGEPGPQSPCEENLVTSVEPPAEVTPSESSESISLVTQIANPATAPEARVLPKDLSQKLLEASLEEQGLAVDVGETGPSPPIHSKPLTPAGHTGGPEPRPPARVETLREEAPTDLRVFELNSDSGKSTPSNNGKKGSSTDISEDWEKDFDLDMTEEEVQMALSKVDASGELEDVEWEDWE [BSDC1] | 0.378 | 53.3 | 53.5 | -0.201 | -1.16 | -2.92
MAEGERQPPPDSSEEAPPATQNFIIPKKEIHTVPDMGKWKRSQAYADYIGFILTLNEGVKGKKLTFEYRVSEMWNEVHEEKEQAAKQSVSCDECIPLPRAGHCAPSEAIEKLVALLNTLDRWIDETPPVDQPSRFGNKAYRTWYAKLDEEAENLVATVVPTHLAAAVPEVAVYLKESVGNSTRIDYGTGHEAAFAAFLCCLCKIGVLRVDDQIAIVFKVFNRYLEVMRKLQKTYRMEPAGSQGVWGLDDFQFLPFIWGSSQLIDHPYLEPRHFVDEKAVNENHKDYMFLECILFITEMKTGPFAEHSNQLWNISAVPSWSKVNQGLIRMYKAECLEKFPVIQHFKFGSLLPIHPVTSG [PPP2R4] | 0.247 | 53.8 | 53.8 | -0.119 | 2.14 | 2.26
